# Test results published in patent publication US20260167959A1, “APTAZYME-BASED REGULATABLE GENE EXPRESSION SYSTEMS” (REJUVENATE BIO INC, priority 2022, published 2026).
# Tested on: Renilla luciferase RNA
# Assay: Barcoded aptazyme variant library screen: un-cleaved Renilla luciferase RNA by barcode read counts, HEK293-T cells
# Assay type: cell-based
# Conditions: un-cleaved Renilla luciferase RNA by barcode read counts; with 1 mM theophylline (ON) over without theophylline (OFF); HEK293-T cells; triplicate
# Method in brief: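 Aptazyme variants (seven theophylline aptamers inserted after each T3H48 ribozyme nucleotide, 9-nt barcoded) cloned into the 3′ UTR of Renilla luciferase in psiCHECK-2; cells cultured ± theophylline, in triplicate. RNA and DNA barcodes amplified and sequenced; normalized read counts gave un-cleaved RNA fraction and ON/OFF fold-change.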
row,Molecule,Fold change in RNA expression between the ON state and the OFF state
1,"RA366 (nucleic acid, expressed or natural sequence) DNA: GCGCGTCCTGGATTCGCGGAAGAGAATACCAGCATCGTCTTGATGCCCTTGGAAGTCTCACGCGTACATCCAGCTGACGAGTCCCAAATAGGACGAAACGCGC",0.8
2,"RA357 (nucleic acid, expressed or natural sequence) DNA: GCGCGTCCTGGATTCGCGGAAACGCGTACATCCAGCTGACGAGTCCCAAATAGGACGGGAATACCAGCATCGTCTTGATGCCCTTGGAAGTCCAAACGCGC",0.8
3,"RA358 (nucleic acid, expressed or natural sequence) DNA: GCGCGTCCTGGATTCGCGGAAACGCGTACATCCAGCTGACGAGCGGAATACCAGCATCGTCTTGATGCCCTTGGAAGTCCGTCCCAAATAGGACGAAACGCGC",0.8
4,"RA360 (nucleic acid, expressed or natural sequence) DNA: GCAGAATACCAGCATCGTCTTGATGCCCTTGGAAGTCTGCGTCCTGGATTCGCGGAAACGCGTACATCCAGCTGACGAGTCCCAAATAGGACGAAACGCGC",0.8
5,"RA365 (nucleic acid, expressed or natural sequence) DNA: GCGAGAATACCAGCATCGTCTTGATGCCCTTGGAAGTCTCGTCCTGGATTCGCGGAAACGCGTACATCCAGCTGACGAGTCCCAAATAGGACGAAACGCGC",0.8
6,"RA361 (nucleic acid, expressed or natural sequence) DNA: GCGCGTCCTGGATTCGCGGAAACGCGTACATCCAGCTGACGAGTCCCAAATAGGACGAAACGCCCGGAATACCAGCATCGTCTTGATGCCCTTGGAAGTCCGGGC",0.8
7,"RA363 (nucleic acid, expressed or natural sequence) DNA: GCGCGTCCTGGATTCGCGGAAACGCGTACATCCAGCTGACGAGTCCCACGGAATACCAGCATCGTCTTGATGCCCTTGGAAGTCCGAATAGGACGAAACGCGC",0.8
8,"RA364 (nucleic acid, expressed or natural sequence) DNA: GCGCGTCCTGGATTCGCGGAAACGCGTGGAATACCAGCATCGTCTTGATGCCCTTGGAAGTCCACATCCAGCTGACGAGTCCCAAATAGGACGAAACGCGC",0.8
9,"RA359 (nucleic acid, expressed or natural sequence) DNA: GCGCGTCCTGGATAGAATACCAGCATCGTCTTGATGCCCTTGGAAGTCTTCGCGGAAACGCGTACATCCAGCTGACGAGTCCCAAATAGGACGAAACGCGC",0.8
10,"RA367 (nucleic acid, expressed or natural sequence) DNA: GCGCGTCCTGGATGGAATACCAGCATCGTCTTGATGCCCTTGGAAGTCCTCGCGGAAACGCGTACATCCAGCTGACGAGTCCCAAATAGGACGAAACGCGC",0.8
11,"RA362 (nucleic acid, expressed or natural sequence) DNA: GCGCGTCCTGGAGGAATACCAGCATCGTCTTGATGCCCTTGGAAGTCCTTCGCGGAAACGCGTACATCCAGCTGACGAGTCCCAAATAGGACGAAACGCGC",0.8

# Same assay, conditions: un-cleaved Renilla luciferase RNA, HEK293-T cells cultured with 1 mM theophylline (ON) over without theophylline (OFF); barcode read counts, triplicate
row,Molecule,Fold change in RNA expression between the ON state and the OFF state [fold]
1,"RA035 (nucleic acid, expressed or natural sequence) DNA: GCGCGTCCTGGATTCGCGGAAACGCGTACATCCAGCTGACGAGTCCCAAATAGGACGAAACGGAATACCAGCATCGTCTTGATGCCCTTGGAAGTCCGCGCGC",2.2
